Data: US20040170614A1

Assays:
Assay in all cases: cell-based or functional assay
[1] = target: mouse CD40 (mCD40) (mouse) (UniProt P27512)
hmCD40ΔT6 (human; mouse) = hmCD40ΔT6 (human; mouse) (UniProt P25942)
[2] = target: human-mouse hybrid CD40 (hmCD40) (human; mouse) (UniProt P25942)

Chain of UniProt P27512 (P27512 20-289): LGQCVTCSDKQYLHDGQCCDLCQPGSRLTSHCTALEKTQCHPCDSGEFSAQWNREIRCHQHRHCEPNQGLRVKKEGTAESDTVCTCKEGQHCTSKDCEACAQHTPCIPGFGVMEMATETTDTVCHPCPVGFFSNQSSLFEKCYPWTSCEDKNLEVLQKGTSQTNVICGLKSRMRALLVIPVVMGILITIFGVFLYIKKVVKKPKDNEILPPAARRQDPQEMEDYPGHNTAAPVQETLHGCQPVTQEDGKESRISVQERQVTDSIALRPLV

Substance | IgM secretion (Pfc), CH12.LX+hmCD40 cells [1] | IgM secretion (Pfc), CH12.LX+hmCD40ΔT6 cells [1] | IgM secretion (Pfc), CH12.T2-/-+hmCD40 cells [1] | IgM secretion (Pfc), CH12.T2-/-+hmCD40ΔT6 cells [1] | IgM secretion (Pfc), CH12.LX+hmCD40ΔT6 cells (hmCD40ΔT6 (human; mouse)) | IgM secretion (Pfc), CH12.T2-/-+hmCD40ΔT6 cells (hmCD40ΔT6 (human; mouse)) | IgM secretion (Pfc), CH12.LX+hmCD40 cells [2] | IgM secretion (Pfc), CH12.T2-/-+hmCD40 cells [2]
anti-mCD40 mAb 1C10 (antibody) | 431000 Pfc | 378000 Pfc | 399000 Pfc | 340000 Pfc | – | – | – | –
anti-hCD40 mAb G28-5 (antibody) | – | – | – | – | 187000 Pfc | 34000 Pfc | 430000 Pfc | 376000 Pfc
